# Reference: patent US20170362330A1 (University of California, published 2017)
# B1: YS5 (antibody, V domains shown)
# VH: QVQLVQSGGGVVQPGRSLRLACAASGLTVNNYAMHWVRQAPGKGLEWVAVISYDGNNKYYADSVKGRFTISRDNSKNTLYLQMNSLRAEDTAVYYCAKGGGYFDLWGRGTLVTVSS
# VL: QSVLTQPPSVSGAPGQRVTISCTGSSSNIGAGYDVHWYQQLPGTAPKLLIYGNNNRPSGVPDRFSGSKSGTSASLAITGLQAEDEADYYCSSYTSGTWLFGGGTKLTVL
# notes: Human scFv from phage/yeast display, converted into full human IgG1; also called YS5 IgG1; anti-CD46 antibody (YS5)
# How the values were obtained:
# cynomolgus monkey CD46 [1] = molecular target: T1, cynomolgus monkey CD46 (cynomolgus monkey, UniProt A0A2K5WCL8 35-377); experiment: FACS on CHO cells transfected with cynomolgus monkey CD46, 4 °C overnight, MFI curve fit
# T1 construct: whole, on cells; also called cyno monkey CD46; CHO-cynoCD46
# T1 sequence: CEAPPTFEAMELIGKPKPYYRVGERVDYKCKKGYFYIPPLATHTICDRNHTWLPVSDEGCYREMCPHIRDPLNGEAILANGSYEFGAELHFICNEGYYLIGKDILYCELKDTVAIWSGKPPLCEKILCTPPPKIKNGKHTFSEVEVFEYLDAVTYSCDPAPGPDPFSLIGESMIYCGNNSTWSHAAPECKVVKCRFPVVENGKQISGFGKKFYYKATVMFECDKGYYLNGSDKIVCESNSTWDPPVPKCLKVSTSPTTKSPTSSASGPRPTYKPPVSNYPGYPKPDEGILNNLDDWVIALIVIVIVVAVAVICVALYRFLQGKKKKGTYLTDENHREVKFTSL
# Method: (§1) FIGS. 6. YS5 KD measurement on CHO cells transfected with cynomolgus monkey CD46. YS5 was incubated with CHO-cynoCD46 cells at 4° C. overnight and binding analyzed by FACS.
# [2] = molecular target: T2, recombinant Fc fusion protein composed of the Sushi domain 1 and 2 of human CD46 (human, UniProt P15529 35-159); experiment: phage and yeast display selection and FACS screening with recombinant CD46-Fc fusion
# T2 construct: domain: Sushi domain 1 and 2; Produced in HEK293 cells, purified by protein A; also called CD46-Fc fusion; recombinant CD46-Fc fusion protein; not shown: Fc part
# T2 sequence (looked up): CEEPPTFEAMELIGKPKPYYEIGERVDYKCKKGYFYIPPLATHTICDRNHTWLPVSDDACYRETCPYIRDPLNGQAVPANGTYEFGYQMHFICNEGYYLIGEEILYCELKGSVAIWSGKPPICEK
# Text: To identify novel anti-human CD46 antibodies, a recombinant Fc fusion protein composed of the Sushi domain 1 and 2 of human CD46 was created. As complement elements bind predominantly to domain 3 and 4, the choice of domain 1 and 2 minimize selection of antibodies that could potently interfere with normal complement function. This CD46-Fc fusion was produced and purified from transfected HEK293 cells by protein A affinity chromatography. For human antibody selection, a 5×10⁹ member phagemid display library was created using cDNAs pooled from peripheral blood mononuclear cells of 426 healthy human donors, and the library was selected the recombinant CD46-Fc fusion protein. Following three rounds of selection, binding phagemid were screened by FACS and sequenced. In parallel, an alternatively strategy was employed that involve first selecting the library on live tumor cells followed by transferring the output from round 1 phagemid selection into a yeast surface display vector, and then FACS-based selection using low concentration ligands to enrich high affinity binders to the recombinant CD46-Fc fusion protein. The resulting antibodies bind with high affinity to both live tumor cells and the recombinant human CD46 protein.
# cynomolgus monkey CD46 [3] = molecular target: T1, cynomolgus monkey CD46; experiment: FACS on CHO-cynoCD46 cells, 4 C overnight, MFI against antibody concentration
# Method: as §1
binder,measurement,setting,value
B1,Kd,cynomolgus monkey CD46 [1],1.95 nM
same,binding result,[2],binds
same,EC50 (read off the curve),cynomolgus monkey CD46 [3],~2 nM
